From patent US20050002959A1 (GlaxoSmithKline, published 2005)
Where “and” joins values, the source holds several entries; their conditions need not be identical. Equal values may be shown once.

B1: humanized 3B9 (IgG4 variant) (antibody, V domains shown)
VH: QVTLRESGPALVKPTQTLTLTCTFSGFSLSTSGMGVSWIRQPPGKGLEWLAHIYWDDDKRYNPSLKSRLTISKDTSRNQVVLTMTNMDPVDTATYYCARRETVFYWYFDVWGRGTPVTVSS
VL: IVMTQSPDSLAVSLGERATINCKASQSVDYDGDSYMNWYQQKPGQPPKLLIYAASNLESGVPDRFSGSGSGTDFTLTISSLQAEDVAVYYCQQSNEDPPRFGGGTKVEIKR
B2: humanized 3B9 (IgG1) (antibody, V domains shown)
VH: QVTLRESGPALVKPTQTLTLTCTFSGFSLSTSGMGVSWIRQPPGKGLEWLAHIYWDDDKRYNPSLKSRLTISKDTSRNQVVLTMTNMDPVDTATYYCARRETVFYWYFDVWGRGTPVTVSS
VL: IVMTQSPDSLAVSLGERATINCKASQSVDYDGDSYMNWYQQKPGQPPKLLIYAASNLESGVPDRFSGSGSGTDFTLTISSLQAEDVAVYYCQQSNEDPPRFGGGTKVEIKR
notes: Human IgG1 heavy constant region and human kappa constant region; also called humanized MAb 3B9; 3B9 (Humanized)
B3: recombinant human IL4 (non-glycosylated, produced in E. coli) (ligand, UniProt P05112 25-153, looked up)
chain: HKCDITLQEIIKTLNSLTEQKTLCTELTVTDIFAASKNTTEKETFCRAATVLRQFYSHHEKDTRCLGATAQQFHRHKQLIRFLKRLDRNLWGLAGLNSCPVKEANQSTLENFLERLKTIMREKYSKCSS
notes: also called hIL4; hIL-4

Tests used:
[1] = target: B3; assay: cell-based or functional assay
[2] = target: B3; assay: titration microcalorimetry, pH 7.4, 150 mM NaCl, 25° C.
Experimental: (§1) The affinity and detailed thermodynamics of IL4 binding to humanized MAb 3B9 and murine 3B9 (Example 1) were determined by titration microcalorimetry.

[3] = target: B3; assay: titration microcalorimetry, calculated for pH 7.4, 150 mM NaCl, 25° C. by the Gibbs-Helmholz equation
Experimental: as §1

[4] = target: T1, IL4 receptor on the gibbon cell line MLA [ATCC TIB201] (gibbon); assay: displacement of 125I-rhIL4 (83 pM) from gibbon MLA cells
T1 construct: whole, on cells; also called its receptor
Experimental: The ability of 3B9 to inhibit the binding of IL4 to its receptor was studied using ¹²⁵I-rhIL4 binding to the gibbon cell line, MLA [ATCC TIB201], that bears approximately 6000 receptors per cell. MLA cells were incubated with […] for 30 minutes at 37° C. Uptake of radioactivity was determined in a gamma counter after separation of cell bound ¹²⁵I-IL4 by centrifugation through an oil-gradient. Non-specific binding was determined by incubating in the presence of a 100-fold molar excess of unlabelled IL4 [Park et al, J. Exp. Med., 166:476-488 (1987)]. The IC₅₀ value for unlabeled IL4 in this assay was 22 pM when the amount of (added) IL4 was 83 pM. For intact murine (IgG) 3B9 the IC₅₀ was 63 pM, and 93 pM for the Fab fragment.

| Binder | IC50, B cell proliferation [1] [nM] | IC50, IgE synthesis [1] | IC50, T cell proliferation [1] | IC50, CD23 induction [1] [nM] | -TΔS [2] [kcal/mol IL4] | ΔG [2] [kcal/mol IL4] | ΔH [2] [kcal/mol IL4] | Kd [3] [nM] | IC50 [4] [nM] |
| --- | --- | --- | --- | --- | --- | --- | --- | --- | --- |
| B1 | 0.079 | 0.406 nM | 0.04 nM |  |  |  |  |  |  |
| B2 |  | 0.054 nM and 0.035 nM and 0.083 nM | 0.044 nM and 0.03 nM and 0.056 nM | 0.333 | 8.2 | -13.6 | -21.8 | 0.011 |  |
| B3 |  |  |  |  |  |  |  |  | 0.022 |
